Reference: US20080311134A1 (published 2008)

Target: T1, MUC16 polypeptide, endogenous, on OVCAR-3 cells (human, UniProt Q8WXI7 1-14507)
T1 construct: whole, on cells; Highly polymorphic repeat protein; also called CA125; O772P
Experiment: flow cytometry on OVCAR-3 cells, 25-400 ng/mL, anti-human Fc secondary antibody
Description: Bound antibody was detected using a fluorescent anti-human Fc secondary antibody.
Antibodies were applied at 25, 50, 100, 200, and 400 ng/mL in PBS+1% FBS+2 mM EDTA. After this incubation, cells were washed and then incubated with phycoerythrein-labeled goat anti-human Fc secondary antibody (one hour on ice). Cells were then washed and analyzed by flow cytometry. […] Even the lowest antibody concentration tested (25 ng or approximately 1×10¹¹ antibodies) provides a molar excess of antibodies over binding sites. Therefore, the concentration at which binding is reduced (as detected by flow cytometry) reflect the affinity of the antibody for MUC16.

binding result: binds
B1: A117C thio hu anti-MUC16 3A5 humanized variant (antibody, human IgG1, kappa, V domains shown)
VH: EVQLVESGGGLVQPGGSLRLSCAASGYSITNDYAWNWVRQAPGKGLEWVGYISYSGYTTYNPSLKSRFTISRDTSKNTLYLQMNSLRAEDTAVYYCARWTSGLDYWGQGTLVTVSS
VL: DIQMTQSPSSLSASVGDRVTITCKASDLIHNWLAWYQQKPGKAPKLLIYGATSLETGVPSRFSGSGSGTDFTLTISSLQPEDFATYYCQQYWTTPFTFGQGTKVEIKR
notes: Full-length IgG expressed in CHO cells; Kabat 114, Eu 118; also called thio hu anti-MUC16 HC A117C 3A5; A117C thio hu 3A5
